The text below walks through data of patent US20200216495A1 (ADRX, published 2020).

Where “and” joins values, the source holds several entries; their conditions need not be identical. Identical values can stand only once. Square brackets hold non-standard residues; d marks the D form. Ends that are not written are not given here.

The target in this assay is Tau40 P301L protein (human). Put plainly: cell-based or functional assay.
For the molecule [dW][dR][dA][dR][dI][dH][dW] [wrarihw], the “IC50, Tau40 assay (ThT)” value stood at 3.33 µM.

In the case of [dW][dR][dL][dR][dI][dW][dW] [wrlriww], the “IC50, Tau40 assay (ThT)” value is 3.06 µM.

Take [dW][dR][dL][dN][dV][dN][dW] [wrlnvnw]: the “IC50, Tau40 assay (ThT)” value is 3.23 µM.

For the molecule [dW][dR][dL][dK][dA][dR][dW] [wrlkarw], the “IC50, Tau40 assay (ThT)” value was determined as 3.23 µM.

[dL][dK][dI][dE][dI][dH][dY] [lkieihy]: the “IC50, Tau40 assay (ThT)” value was 3.32 µM.

With [dW][dW][dL][dK][dL][dR][dW] [wwlklrw], the “IC50, Tau40 assay (ThT)” value came out at 3.54 µM.

Regarding [dW][dR][dL][dR][dI][dE][dW] [wrlriew], the “IC50, Tau40 assay (ThT)” value came to 3.23 µM.

In the case of [dF][dR][dI][dK][dL][dK][dW][dH] [friklkwh], the “IC50, Tau40 assay (ThT)” value is 3.88 µM and 3.9 µM.

In the case of [dH][dK][dI][dR][dI][dH][dY][dH] [hkirihyh], the “IC50, Tau40 assay (ThT)” value was 3.84 µM.

Consider [dW][dR][dL][dR][dI][dH][dA] [wrlriha], for which the “IC50, Tau40 assay (ThT)” value was found to be 3.23 µM.

[dF][dK][dL][dE][dI][dR][dY][dH] [fkleiryh]: the “IC50, Tau40 assay (ThT)” value turned out to be 3.38 µM.

As to [dR][dL][dR][dV][dR][dW] [rlrvrw], the “IC50, Tau40 assay (ThT)” value was 3.71 µM and 4.76 µM.

In the case of [dF][dE][dL][dH][dI][dK][dW][dH] [felhikwh], the “IC50, Tau40 assay (ThT)” value is 3.11 µM.

[dK][dW][dR][dW][dY][dR][dR] [kwrwyrr]: the “IC50, Tau40 assay (ThT)” value is 3.55 µM.

Consider [dW][dR][dL][dR][dT][dH][dW] [wrlrthw], for which the “IC50, Tau40 assay (ThT)” value was 3.33 µM.

As to [dH][dR][dF][dK][dV][dQ][dL][dY] [hrfkvqly], the “IC50, Tau40 assay (ThT)” value came to 4.03 µM.

Turning to [dW][dR][dA][dK][dV][dR][dW] [wrakvrw], the “IC50, Tau40 assay (ThT)” value worked out at 3.23 µM.

Take [dW][dK][dL][dK][dL][dR][dW] [wklklrw]: the “IC50, Tau40 assay (ThT)” value was 3.56 µM and 7.39 µM.

As for [dL][dK][dI][dR][dI][dH][dR][dH] [lkirihrh], the “IC50, Tau40 assay (ThT)” value is 3.16 µM.

For [dW][dR][dL][dE][dI][dH][dW] [wrleihw], the “IC50, Tau40 assay (ThT)” value came out at 3.23 µM.

Regarding [dW][dL][dK][dI][dV][dW] [wlkivw], the “IC50, Tau40 assay (ThT)” value is 3.62 µM.

For the molecule [dF][dE][dI][dR][dL][dW][dH][dH] [feirlwhh], the “IC50, Tau40 assay (ThT)” value came to 3.38 µM.

For the molecule [dL][dA][dI][dR][dI][dH][dY] [lairihy], the “IC50, Tau40 assay (ThT)” value came out at 3.98 µM.

On to [dF][dR][dL][dR][dI][dH][dW][dF] [frlrihwf], for which the “IC50, Tau40 assay (ThT)” value was 3.77 µM and 7.09 µM.

On to [dF][dR][dI][dR][dL][dR][dW] [frirlrw], for which the “IC50, Tau40 assay (ThT)” value worked out at 3.23 µM.

For the molecule [dL][dK][dI][dW][dI][dW][dY][dH] [lkiwiwyh], the “IC50, Tau40 assay (ThT)” value is 3.19 µM.

For the molecule [dW][dR][dL][dM][dI][dH][dW] [wrlmihw], the “IC50, Tau40 assay (ThT)” value stood at 3.23 µM.

With [dR][dW][dK][dV][dR][dW] [rwkvrw], the “IC50, Tau40 assay (ThT)” value came to 3.7 µM.

[dE][dR][dL][dK][dV][dR][dW] [erlkvrw]: the “IC50, Tau40 assay (ThT)” value came out at 3.07 µM.

[dL][dK][dI][dF][dI][dW][dY][dH] [lkifiwyh]: the “IC50, Tau40 assay (ThT)” value worked out at 3.33 µM.

Regarding [dA][dR][dL][dK][dV][dR][dW] [arlkvrw], the “IC50, Tau40 assay (ThT)” value was found to be 3.23 µM.

As for [dF][dK][dI][dR][dI][dK][dW][dH] [fkirikwh], the “IC50, Tau40 assay (ThT)” value is 3.06 µM and 5.46 µM.

On to [dF][dR][dL][dW][dI][dH][dW] [frlwihw], for which the “IC50, Tau40 assay (ThT)” value came to 3.33 µM.

Take [dW][dK][dV][dQ][dV][dR][dY][dW] [wkvqvryw]: the “IC50, Tau40 assay (ThT)” value was 3.54 µM.

Consider [dL][dD][dL][dR][dF][dK][dL][dY] [ldlrfkly], for which the “IC50, Tau40 assay (ThT)” value was 3.43 µM.

Regarding [dW][dR][dL][dD][dV][dR][dW] [wrldvrw], the “IC50, Tau40 assay (ThT)” value amounted to 3.13 µM.

Take [dF][dH][dI][dR][dL][dR][dH][dH] [fhirlrhh]: the “IC50, Tau40 assay (ThT)” value is 3.21 µM and 4.3 µM.

In the case of [dW][dK][dV][dH][dI][dQ][dH][dW] [wkvhiqhw], the “IC50, Tau40 assay (ThT)” value stood at 3.29 µM.

For the molecule [dF][dH][dL][dK][dI][dR][dH][dH] [fhlkirhh], the “IC50, Tau40 assay (ThT)” value is 3.29 µM and 3.36 µM.

[dK][dV][dR][dW][dW][dW][dR][dL] [kvrwwwrl]: the “IC50, Tau40 assay (ThT)” value turned out to be 3.84 µM.

For the molecule [dF][dK][dI][dE][dL][dH][dW][dH] [fkielhwh], the “IC50, Tau40 assay (ThT)” value is 3.37 µM and 3.44 µM.

[dL][dK][dI][dR][dI][dH][dY][dE] [lkirihye]: the “IC50, Tau40 assay (ThT)” value turned out to be 3.32 µM.

Turning to [dW][dA][dL][dR][dI][dH][dW] [walrihw], the “IC50, Tau40 assay (ThT)” value was found to be 3.23 µM.

Turning to [dA][dK][dI][dR][dI][dH][dY][dH] [akirihyh], the “IC50, Tau40 assay (ThT)” value was 3.54 µM.

Take [dE][dR][dL][dK][dV][dR][dW][dW] [erlkvrww]: the “IC50, Tau40 assay (ThT)” value stood at 3.36 µM.

For the molecule [dL][dK][dI][dE][dI][dH][dY][dH] [lkieihyh], the “IC50, Tau40 assay (ThT)” value is 3.64 µM.

[dW][dR][dI][dR][dI][dR][dW] [wririrw]: the “IC50, Tau40 assay (ThT)” value is 3 µM.

On to [dL][dK][dI][dR][dR][dH][dY][dH] [lkirrhyh], for which the “IC50, Tau40 assay (ThT)” value was determined as 3.21 µM.

Take [dF][dH][dL][dH][dL][dK][dH][dW] [fhlhlkhw]: the “IC50, Tau40 assay (ThT)” value amounted to 3.74 µM.

[dW][dR][dL][dR][dI][dW][dW][dW] [wrlriwww]: the “IC50, Tau40 assay (ThT)” value was 3.76 µM and 5.41 µM.

As to [dW][dN][dL][dN][dV][dR][dW] [wnlnvrw], the “IC50, Tau40 assay (ThT)” value worked out at 3.33 µM.

Regarding [dW][dR][dL][dK][dV][dR][dW][dW] [wrlkvrww], the “IC50, Tau40 assay (ThT)” value was 3.23 µM.

As to [dR][dI][dH][dY][dH][dI][dK][dL] [rihyhikl], the “IC50, Tau40 assay (ThT)” value was 3.59 µM.

For [dR][dL][dK][dV][dR][dW] [rlkvrw], the “IC50, Tau40 assay (ThT)” value was 3.38 µM and 3.59 µM and 3.81 µM and 4.79 µM.

Consider [dW][dR][dL][dR][dA][dH][dW] [wrlrahw], for which the “IC50, Tau40 assay (ThT)” value was determined as 3.23 µM.

Take [dW][dR][dT][dR][dI][dH][dW] [wrtrihw]: the “IC50, Tau40 assay (ThT)” value came out at 3.23 µM.

For the molecule [dR][dL][dR][dL][dK][dW] [rlrlkw], the “IC50, Tau40 assay (ThT)” value is 3.43 µM.
